Source: US20130011412A1 (Genentech, published 2013)

Columns and labels:
[1] = molecular target: T1, recombinant human lymphotoxin-α homotrimer (human LTα3) (human, UniProt P01374 35-205); assay: BIACORE (rhLTα)
T1 construct: Coated on plates in the ELISAs; also called rhLTα; lymphotoxin-α3 trimer
T1 sequence (looked up): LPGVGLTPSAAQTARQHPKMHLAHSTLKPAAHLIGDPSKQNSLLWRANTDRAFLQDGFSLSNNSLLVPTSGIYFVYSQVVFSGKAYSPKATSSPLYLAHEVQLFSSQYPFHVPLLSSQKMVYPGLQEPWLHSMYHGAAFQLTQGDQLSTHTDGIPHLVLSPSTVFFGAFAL

[2] = molecular target: T1, recombinant human lymphotoxin-α …; assay: plate ELISA on coated human LTα
[3] = molecular target: T1, recombinant human lymphotoxin-α …; assay: plate ELISA, IgG
[4] = molecular target: T1, recombinant human lymphotoxin-α …; assay: phage competitive ELISA: rhLTα in solution competes with plate-coated LTα
Description: (§1) For the first round, phage were captured for 2 hours against 2 μg/ml plate-coated LTα at ambient temperature. The second and third rounds of selection were performed at ambient temperature by capturing phage for 30 minutes with 2 nM biotinylated LTα in solution phase, followed by capture on neutravidin-coated plates. The highest affinity clone was identified using a competitive ELISA. Constant concentrations of phage clones (normalized by solid-phase LTα binding OD) were incubated with increasing concentrations of LTα (0-50 nM) in solution before capture on a plate coated with 2 μg/ml LTα.

[5] = molecular target: T1, recombinant human lymphotoxin-α …; assay: phage competitive ELISA, LTα (0-50 nM) in solution against plate-coated LTα
Description: as §1

[6] = molecular target: T2, murine cell-surface LTαβ complex on transfected SVT2 cells (murine, UniProt P09225 34-202; P41155 1-306); assay: FACS on SVT2 cells stably expressing murine LTαβ, reagents conjugated to ALEXA-647
T2 construct: whole, on cells; also called murine LTαβ
T2 sequence (looked up) 1: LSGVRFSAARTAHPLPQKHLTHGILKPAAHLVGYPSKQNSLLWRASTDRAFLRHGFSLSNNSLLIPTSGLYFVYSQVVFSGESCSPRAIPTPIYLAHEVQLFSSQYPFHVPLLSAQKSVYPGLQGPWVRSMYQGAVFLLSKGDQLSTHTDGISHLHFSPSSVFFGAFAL
T2 sequence (looked up) 2: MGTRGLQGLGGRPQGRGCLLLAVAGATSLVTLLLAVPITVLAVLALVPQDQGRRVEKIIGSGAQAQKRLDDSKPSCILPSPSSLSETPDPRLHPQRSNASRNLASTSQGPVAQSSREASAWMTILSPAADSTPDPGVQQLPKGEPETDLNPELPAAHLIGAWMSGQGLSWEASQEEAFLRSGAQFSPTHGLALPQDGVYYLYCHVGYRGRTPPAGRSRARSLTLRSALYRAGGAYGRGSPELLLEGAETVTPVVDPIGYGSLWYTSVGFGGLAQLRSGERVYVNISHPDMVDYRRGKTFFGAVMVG
Description: For murine LTαβ, SVT2 cells were transfected with full-length murine LTα and murine LTαβ (murine LTα sequence GenBank Ref NM_{—}010735; murine LTβ sequence GenBank Ref NM_{—}008518) to generate stable murine LTαβ-expressing cell lines. […] Cells were washed, aspirated, and resuspended in PBS with 2% FBS. Cells were analyzed on a FACSCALIBUR™ (dual laser) using […]™ software, and results analyzed on a FLOWJO™ analyzer (Treestar).

[7] = molecular target: T1, recombinant human lymphotoxin-α …; assay: plate ELISA on coated LTα
[8] = molecular target: T1, recombinant human lymphotoxin-α …; assay: plate ELISA on coated LTα; remark: listed apart in the source
[9] = molecular target: T1, recombinant human lymphotoxin-α …; assay: blocking ELISA: biotinylated human LTα3 preincubated with the antibody, then captured on coated TNFRII.huIgG1 (m10)
[10] = molecular target: T1, recombinant human lymphotoxin-α …; assay: direct ELISA on plate-coated human LTα3 (1 µg/ml)
[11] = molecular target: T3, human cell-surface LTαβ complex (LTα complexed with LTβ on the cell surface) (human, UniProt P01374 35-205; Q06643 1-244); assay: FACS titration on human Th1 cells, Alexa Fluor 647 conjugates
T3 construct: whole, on cells; also called human LTαβ
T3 sequence (looked up) 1: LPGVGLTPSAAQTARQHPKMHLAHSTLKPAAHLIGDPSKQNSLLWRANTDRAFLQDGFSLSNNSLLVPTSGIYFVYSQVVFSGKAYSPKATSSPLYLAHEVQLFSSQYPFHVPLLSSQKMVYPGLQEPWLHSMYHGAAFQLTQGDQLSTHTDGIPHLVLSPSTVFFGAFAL
T3 sequence (looked up) 2: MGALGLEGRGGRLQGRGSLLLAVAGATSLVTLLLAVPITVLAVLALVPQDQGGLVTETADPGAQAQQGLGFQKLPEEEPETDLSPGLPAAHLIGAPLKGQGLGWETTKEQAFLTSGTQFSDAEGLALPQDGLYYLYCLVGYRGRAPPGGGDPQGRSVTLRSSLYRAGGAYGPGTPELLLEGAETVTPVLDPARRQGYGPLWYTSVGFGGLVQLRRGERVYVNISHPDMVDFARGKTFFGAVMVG
Description: Cells were washed, aspirated, and re-suspended in PBS with 2% FBS. Cells were analyzed on a FACSCALIBUR™ (dual laser) using […]™ software, and results analyzed on a FLOWJO™ analyzer (Treestar).

B1: humanized 2C8.v2 (antibody, IgG1, V domains shown)
VH: EVQLVESGGGLVQPGGSLRLSCAASGYTFTSYVIHWVRQAPGKGLEWVGYNNPYNDGTNYNEKFKGRATISSDKSKNTAYLQMNSLRAEDTAVYYCSRPTMLPWFAYWGQGTLVTVSS
VL: DIQMTQSPSSLSASVGDRVTITCRASQAVSSAVAWYQQKPGKAPKLQIYSASHRYTGVPSRFSGSGSGTDFTLTISSLQPEDFATYYCQQHYSTPWTFGQGTKVEIKR
notes: also called Version 2
- Kd [1]: 0.2 nM
- kon [1]: 600000 M⁻¹ s⁻¹
- ELISA IC50 ratio [2]: 1.7 ratio

B2: humanized 2C8.v12 (antibody, V domains shown)
VH: EVQLVESGGGLVQPGGSLRLSCAASGYTFTSYVIHWVRQAPGKGLEWVGYNNPYNDGTNYNEKFKGRFTISSDKSKNTAYLQMNSLRAEDTAVYYCSRPTMLPWFAYWGQGTLVTVSS
VL: DIQMTQSPSSLSASVGDRVTITCRASQAVSSAVAWYQQKPGKAPKLLIYSASHRYTGVPSRFSGSGSGTDFTLTISSLQPEDFATYYCQQHYSTPWTFGQGTKVEIKR
notes: Human kappa / IgG1; also called Version 12; copies: 2 + 2
- Kd [1]: 0.07 nM
- ELISA IC50 ratio [2]: 1 ratio

B3: humanized 2C8.v16 (antibody, human IgG1, V domains shown)
VH: EVQLVESGGGLVQPGGSLRLSCAASGYTFTSYVIHWVRQAPGKGLEWVGYNNPYNDGTNYNEKFKGRFTISSDKSKNTAYLQMNSLRAEDTAVYYCSRPTMLPWFAYWGQGTLVTVSS
VL: DIQMTQSPSSLSASVGDRVTITCRASQAVSSAVAWYQQKPGKAPKLLIYSASHRYTGVPSRFSGSGSGTDFTLTISSLQPEDFATYYCQESYSTPWTFGQGTKVEIKR
notes: Heavy chain: v12 variable domain on human IgG1; copies: 2 + 2
- fold improvement in binding compared to 2C8.v2 [3]: 2 fold
- ELISA IC50 ratio [2]: 0.6 ratio

B4: humanized 2C8.v7 (antibody, V domains shown)
VH: EVQLVESGGGLVQPGGSLRLSCAASGYTFTSYVIHWVRQAPGKGLEWVGYNNPYNDGTNYNEKFKGRATISSDKSKNTAYLQMNSLRAEDTAVYYCSRPTMLPWFAYWGQGTLVTVSS
VL: DIQMTQSPSSLSASVGDRVTITCRASQAVSSAVAWYQQKPGKAPKLLIYSASHRYTGVPSRFSGSGSGTDFTLTISSLQPEDFATYYCQQHYSTPWTFGQGTKVEIKR
notes: Human kappa / IgG1; copies: 2 + 2
- Kd [1]: 0.4 nM
- ELISA IC50 ratio [2]: 1.2 ratio

B5: phage-displayed 2C8 Fab clone A8 (Fab, V domains shown)
VH: EVQLVESGGGLVQPGGSLRLSCAASGYTFTSYVIHWVRQAPGKGLEWVGYNNPYNDGTNYNEKFKGRATISSDKSKNTAYLQMNSLRAEDTAVYYCSRPTMLPWFAYWGQGTLVTVSS
VL: DIQMTQSPSSLSASVGDRVTITCRASQAVSSAVAWYQQKPGKAPKLQIYSASHRYTGVPSRFSGSGSGTDFTLTISSLQPEDFATYYCQESYSTPWTFGQGTKVEIKR
notes: All phagemids kept the wild-type CDR-H3; also called 2C8 clone A8
- IC50 [4]: 0.32 nM
- fold improvement in competition over wild-type 2C8.v2 [5]: 10 fold

B6: LTbR.muIgG2a (Fc fusion, mouse, UniProt P50284 31-223, looked up)
receptor-Fc fusion chain: QLVPPYRIENQTCWDQDKEYYEPMHDVCCSRCPPGEFVFAVCSRSQDTVCKTCPHNSYNEHWNHLSTCQLCRPCDIVLGFEEVAPCTSDRKAECRCQPGMSCVYLDNECVHCEEERLVLCQPGTEAEVTDEIMDTDVNCVPCKPGHFQNTSSPRARCQPHTRCEIQGLVEAAPGTSYSDTICKNPPEPGAMLL
notes: receptor portion of an Fc fusion; also called LTβ-receptor murine IgG2a; muLTβR.IgG2a
- binding result [6]: binds

B7: humanized 3F12.v2 (antibody, IgG1, name in Kabat numbering, V domains shown)
VH: EVQLVESGGGLVQPGGSLRLSCAASGYTFSSYWIEWVRQAPGKGLEWVGEISPGSGSTNYNEEFKGRATFSADNSKNTLYLQMNSLRAEDTAVYYCADGYHGYWGQGTLVTVSS
VL: DIQMTQSPSSLSASVGDRVTITCKSSQSLLYSTNQKNFLAWYQQKPGKAPKLLIYWASTRDSGVPSRFSGSGSGTDFTLTISSLQPEDFATYYCQQYYSYPRTFGQGTKVEIKR
notes: Built back from 3F12.v5; human kappa / IgG1 constant domains; also called I69F
- Relative binding [7]: > 1000 fold down from the chimera

B8: humanized 3F12.v5 (antibody, IgG1, V domains shown)
VH: EVQLVESGGGLVQPGGSLRLSCAASGYTFSSYWIEWVRQAPGKGLEWVGEISPGSGSTNYNEEFKGRATFSADNSKNTAYLQMNSLRAEDTAVYYCADGYHGYWGQGTLVTVSS
VL: DIQMTQSPSSLSASVGDRVTITCKSSQSLLYSTNQKNFLAWYQQKPGKAPKLLIYWASTRDSGVPSRFSGSGSGTDFTLTISSLQPEDFATYYCQQYYSYPRTFGQGTKVEIKR
notes: Human kappa / IgG1 constant domains (vectors of humanized 2G7 version 5); also called version 5
- fold weaker binding than the chimera [8]: ~5 fold

B9: humanized 3F12.v4 (antibody, IgG1, name in Kabat numbering, V domains shown)
VH: EVQLVESGGGLVQPGGSLRLSCAASGYTFSSYWIEWVRQAPGKGLEWVGEISPGSGSTNYNEEFKGRATISADNSKNTAYLQMNSLRAEDTAVYYCADGYHGYWGQGTLVTVSS
VL: DIQMTQSPSSLSASVGDRVTITCKSSQSLLYSTNQKNFLAWYQQKPGKAPKLLIYWASTRDSGVPSRFSGSGSGTDFTLTISSLQPEDFATYYCQQYYSYPRTFGQGTKVEIKR
notes: Built back from 3F12.v5; human kappa / IgG1 constant domains; also called L78A
- Relative binding [7]: > 500 fold down from the chimera

B10: chimeric anti-LTα antibody 2C8 (antibody, human IgG1, kappa, V domains shown)
VH: EVQLQQSGPELVKPGASVKLSCKASGYTFTSYVIHWVKQKPGQGLEWIGYNNPYNDGTNYNEKFKGKATLTSDKSSSTAYMELSSLTSEDSAVYYCSRPTMLPWFAYWGQGTTLTVSA
VL: DIVMTQSHKFMSTSVGDRVSITCKASQAVSSAVAWYQQKPGQSPKLQIYSASHRYTGVPDRFTGSGSGTDFTFTISSVQAEDLAVYYCQQHYSTPWTFGGGTKVEIKR
notes: Murine variable domains on human kappa and human IgG1; also called 2C8 chimera; 2C8.chimera
- IC50 (read off the curve) [9]: ~5 nM
- EC50 (read off the curve) [10]: ~0.1 nM
- Kd [1]: 0.6 nM
- ELISA IC50 ratio [2]: 1 ratio

B11: chimeric anti-LTα antibody 3F12 (original chimera) (antibody, human IgG1, kappa, V domains shown)
VH: QGQLQQSGAELMKPGASVKISCKATGYTFSSYWIEWVKQRPGHGLEWIGEISPGSGSTNYNEEFKGKATFTADKSSNTAYIQLSSLSTSEDSAVYYCADGYHGYWGQGTTLTVSS
VL: DIVMSQSPSSLAVSVGEKVTMSCKSSQSLLYSTNQKNFLAWYQQKPGQSPKLLIYWASTRDSGVPDRFTGSGSGTDFTLTISSVKAEDLAVYYCQQYYSYPRTFGGGTKLEIKR
notes: Murine variable domains on human C kappa and IgG1; also called 3F12 chimera; chimeric 3F12
- IC50 (read off the curve) [9]: ~20 nM
- Relative binding [7]: 1 relative to the original chimera
- EC50 (read off the curve) [10]: ~0.3 nM

B12: LTbR.huIgG1 (Fc fusion, human, UniProt P36941 31-227, looked up)
receptor-Fc fusion chain: QAVPPYASENQTCRDQEKEYYEPQHRICCSRCPPGTYVSAKCSRIRDTVCATCAENSYNEHWNYLTICQLCRPCDPVMGLEEIAPCTSKRKTQCRCQPGMFCAAWALECTHCELLSDCPPGTEAELKDEVGKGNNHCVPCKAGHFQNTSSPSARCQPHTRCENQGLVEAAPGTAQSDTTCKNPLEPLPPEMSGTMLM
notes: receptor portion of an Fc fusion; also called LTβ-receptor.huIgG1; human LTβR.huIgG1
- EC50 (read off the curve) [11]: ~0.05 µg/mL
